This is an account of results in paper PMC3156093.

The target of the series is EcoRV restriction endonuclease (UniProt P04390 1-245). The series is described as follows: competition.
Sequence of EcoRV restriction endonuclease (P04390 whole entry): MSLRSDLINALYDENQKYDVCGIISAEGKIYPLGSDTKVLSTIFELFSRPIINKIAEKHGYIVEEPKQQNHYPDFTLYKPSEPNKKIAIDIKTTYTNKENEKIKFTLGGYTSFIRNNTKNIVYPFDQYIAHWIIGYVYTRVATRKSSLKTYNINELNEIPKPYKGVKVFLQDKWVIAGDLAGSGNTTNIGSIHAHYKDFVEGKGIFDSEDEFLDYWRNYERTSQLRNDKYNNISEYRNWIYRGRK

B1: 30 bp specific site oligonucleotide (dsDNA)
DNA 1: CGGGCCTCTTGCGGGATATCGTCCATTCCG
DNA 2: CGGAATGGACGATATCCCGCAAGAGGCCCG
Regarding B1, the binding signal was < 9 % N1 complex remaining at 30-fold excess competitor.
